The source of these data is the supplement of paper PMC9112550, “Optimization of the antimicrobial peptide Bac7 by deep mutational scanning” (BMC Biology, 2022).

The data set concerns Escherichia coli TOP10. As to the kind of experiment: shrunken log2 fold change of peptide-encoding DNA abundance (4.5 h post-induction vs induction); higher = less antimicrobial activity (less host growth inhibition). Conditions: time post-induction: 4.5 h; library: site-saturation at positions 5, 18, 19, 20.
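Note: peptides expressed intracellularly from a pBAD plasmid library in pooled LB shake-flask culture, induced with 0.3% L-arabinose, DNA abundance read by NGS, three biological replicates, DESeq2 with apeglm shrinkage.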

In the case of RRIRSRPPRLPRPRPRPNPFPRP, the “shrunken log2 fold change” value was -0.236.
The result for RRIRRRPPRLPRPRPRPAHKPRP reads 0.386; that for RRIRMRPPRLPRPRPRPFTPPRP, -0.397.
The result for RRIRGRPPRLPRPRPRPMDAPRP reads 0.322.
RRIRCRPPRLPRPRPRPPAHPRP: the “shrunken log2 fold change” value came out at 2.07.
As for RRIRPRPPRLPRPRPRPRMPPRP, the “shrunken log2 fold change” value was determined as 0.249.
As to RRIRARPPRLPRPRPRPSSPPRP, the “shrunken log2 fold change” value was 0.0282.
Turning to RRIRFRPPRLPRPRPRPNSCPRP, the “shrunken log2 fold change” value was -0.895.
Then RRIRFRPPRLPRPRPRPPCMPRP, with -0.125; and RRIRWRPPRLPRPRPRPNPKPRP, with 0.0369; and RRIRSRPPRLPRPRPRPTPLPRP, with 0.159.
As to RRIRSRPPRLPRPRPRPVCCPRP, the “shrunken log2 fold change” value was 0.183.
Then RRIRVRPPRLPRPRPRPVWYPRP, with -0.154.
With RRIRFRPPRLPRPRPRPKWDPRP, the “shrunken log2 fold change” value turned out to be 0.117.
In the case of RRIRQRPPRLPRPRPRPWASPRP, the “shrunken log2 fold change” value is -0.017.
Then RRIRQRPPRLPRPRPRPCCQPRP, with -0.00534; and RRIRYRPPRLPRPRPRPRSHPRP, with -0.267; and RRIRTRPPRLPRPRPRPSQYPRP, with -0.142.
Turning to RRIRQRPPRLPRPRPRPKMEPRP, the “shrunken log2 fold change” value is -0.0177.
Turning to RRIRQRPPRLPRPRPRPHYGPRP, the “shrunken log2 fold change” value stood at 0.0133.
For the sequence RRIRFRPPRLPRPRPRPLVGPRP, the “shrunken log2 fold change” value was -0.0413.
Then RRIRVRPPRLPRPRPRPIWNPRP, with -0.624; and RRIRARPPRLPRPRPRPVSGPRP, with 0.398.
Then RRIRQRPPRLPRPRPRPNGNPRP, with -0.405; and RRIRRRPPRLPRPRPRPTVSPRP, with 0.119; and RRIRHRPPRLPRPRPRPMKHPRP, with -0.0367.
For RRIRGRPPRLPRPRPRPICFPRP, the “shrunken log2 fold change” value came to 0.535.
As for RRIRCRPPRLPRPRPRPVKCPRP, the “shrunken log2 fold change” value is -0.432.
For RRIRSRPPRLPRPRPRPQIWPRP, the “shrunken log2 fold change” value is -0.167.
Regarding RRIRRRPPRLPRPRPRPHTPPRP, the “shrunken log2 fold change” value is -0.039.
The result for RRIRWRPPRLPRPRPRPDMGPRP reads 0.454; that for RRIRPRPPRLPRPRPRPTLKPRP, 0.114; that for RRIRPRPPRLPRPRPRPATIPRP, -0.118.
The result for RRIRMRPPRLPRPRPRPESWPRP reads 1.52; that for RRIRTRPPRLPRPRPRPPHSPRP, -0.141; that for RRIRLRPPRLPRPRPRPGGEPRP, 0.343.
The result for RRIRFRPPRLPRPRPRPALTPRP reads 0.248; that for RRIRQRPPRLPRPRPRPPYEPRP, -0.114; that for RRIRPRPPRLPRPRPRPPRMPRP, 0.412.
In the case of RRIRYRPPRLPRPRPRPHFRPRP, the “shrunken log2 fold change” value was -0.444.
The result for RRIRPRPPRLPRPRPRPMQQPRP reads -0.0524; that for RRIRTRPPRLPRPRPRPSPVPRP, 0.0854; that for RRIRERPPRLPRPRPRPHCEPRP, -0.056.
The result for RRIRFRPPRLPRPRPRPMHEPRP reads 0.085; that for RRIRVRPPRLPRPRPRPIVAPRP, -0.00399.
The result for RRIRDRPPRLPRPRPRPGEDPRP reads -0.000687; that for RRIRRRPPRLPRPRPRPNRDPRP, -0.062; that for RRIRSRPPRLPRPRPRPVSYPRP, -0.0884.
RRIRSRPPRLPRPRPRPVWMPRP: the “shrunken log2 fold change” value was found to be 0.396.
With RRIRVRPPRLPRPRPRPGRKPRP, the “shrunken log2 fold change” value was -0.0493.
